Measured values published in article PMC5625703.

Target: pGBKT7-53 (control bait)
Assay: two-hybrid; β-galactosidase activity assay (Yeast β-galactosidase Assay Kit) on a colony from a DDO plate, 37 °C, OD 420 nm; average of three measurements

With “pGADT7-T (control prey) (natural protein)” the β-galactosidase activity was 401 units.
